According to patent publication US20090068207A1, “Compositions Containing Beta 2-Glycoprotein I-Derived Peptides for the Prevention and/or Treatment of Vascular Disease” (Vascular Biogenics Ltd., priority 2005, published 2009):

Tests used:
Assay type in all cases: in vivo
LDL-RD mice = test: Aortic sinus lesion area after oral administration, Western diet; conditions: for Aortic sinus lesion (μm^2): End, mean ± S.E
Experimental: Oral Tolerance: For comparison, oral tolerance to plaque-associated molecules was induced by feeding […] of antigen every other day (for a detailed account of induction of oral tolerance, see U.S. patent application Ser. No. 09/806,400 to Shoenfeld et al filed Sep. 30, 1999), in a similar regimen to the nasal tolerance. LDL-RD mice were fed by a nasogastric tube, five doses (every other day) of human or bovine β2GPI in PBS in two different concentrations (500 and 50 μg/dose).
Oral tolerance to β2GPI-derived peptides, alone or in combination was induced by feeding 100 μg of the peptides (prepared in PBS, 0.2 ml), as detailed hereinabove, every other day for a total of 5 doses of 100 μg. One day following the last feeding, all mice were switched from chow-diet to an atherogenic “Western” diet and sacrificed five weeks later.
Assessment of Atherosclerosis: Quantification of atherosclerotic fatty streak lesions was done by calculating the lesion size in the aortic sinus as previously described (16) and by calculating the lesion size in the aorta. Briefly, after perfusion with saline Tris EDTA, the heart and the aorta were removed from the animals and the peripheral fat cleaned carefully. The upper section of the heart was embedded in OCT medium (10.24% w/w polyvinyl alcohol; 4.26% w/w polyethylene glycol; 85.50% w/w nonreactive ingredients) and frozen. Every other section (10 μm thick) throughout the aortic sinus (400 μm) was taken for analysis. The distal portion of the aortic sinus was recognized by the three valve cusps that are the junctions of the aorta to the heart. […] Lesion areas per section were scored on a grid (17) by an observer counting unidentified, numbered specimens. The aorta was dissected from the heart and surrounding adventitious tissue was removed. Fixation of the aorta and Sudan staining of the vessels were performed as previously described (21).
LDL-receptor deficient (LDL-RD; LDLR −/−) mice created on a C57BL/6 background develop accelerated atherosclerosis when fed a high cholesterol diet, but not when fed a regular chow diet. In order to determine whether mucosal administration of the plaque antigen β2GPI could suppress atherogenic processes, LDL-RD mice were fed low, oral tolerance inducing doses of human and bovine β2GPI, and the assessed for alterations in response to diet.

[1] = tested on: aorta tissue from ApoE-KO mice; test: RT-PCR analysis of cytokine expression in aorta; conditions: oral 100 μg/mouse, 5 times every other day; male ApoE-KO mice
Experimental: RT-PCR analysis of cytokine expression: 7-9 week old male ApoE-KO mice were tolerized by oral administration of β2GPI in 5 feedings, every other day, of human β2GPI (100 μg/mouse) or PBS, as control, by gavage, as detailed hereinabove. Three days following the oral administration of β2GPI, the mice were sacrificed, aortas collected and processed for RT-PCR analysis of the expression of anti-inflammatory Th2 type cytokine IL-10 and the proinflammatory Th1-type cytokine IFN-γ. The RT-PCR analysis was performed according to the protocol as described in detail by Colle et al (Journal of Immunol Methods 1997; 175-184). Briefly, RNA was extracted from the aortal tissue and reverse transcribed according to well-known, standard protocols, and the transcription products subjected to PCR amplification using the following primers: IL-10-forward primer 5′ […] 3′ (SEQ ID NO: 1), located at nucleotide positions 256-278 of IL-10 (GenBank Accession No. NM 010548 (SEQ ID NO: 2)) and reverse primer 5′[…] 3′ (SEQ ID NO: 3), located at nucleotide positions 532-556 of IL-10 (GenBank Accession No. NM 010548 (SEQ ID NO: 2)); IFN-γ-forward primer 5′ […] 3′ (SEQ ID NO: 4), located at nucleotide positions 372-397 of IFN-γ (GenBank Accession No. NM 008337 (SEQ ID NO: 5)), reverse primer 5′ […] 3′ (SEQ ID NO: 6), located at nucleotide positions 804-827 of IFN-γ (GenBank Accession No. NM 008337 (SEQ ID NO: 5)); and β-actin-forward primer 5′ […] 3′ (SEQ ID NO: 7), located at nucleotide positions 230-252 of β-actin (GenBank Accession No. NM 007393 (SEQ ID NO: 8)), and reverse primer 5′ […] 3′ (SEQ ID NO: 9), located at nucleotide positions […] of β-actin (GenBank Accession No. NM 007393 (SEQ ID NO: 8)). The resultant amplified IL-10, IFN-γ and β-actin transcripts were separated by electrophoresis on an agarose gel, and visualized by ehtidium bromide staining.
Male ApoE-KO mice 7-9 weeks of age were treated by oral administration of human β2GPI (100 μg/mouse) or PBS, as control, by gavage, as detailed hereinabove, 5 times, on every other day. […]

ApoE-KO mice = test: Aortic sinus lesion area after nasal administration in ApoE-KO mice
Experimental: Nasal Tolerance: Nasal tolerance was induced by intranasal administration of oxidized LDL, β2GPI, β2GPI-derived peptides or HSP65, in a total volume of 10 μl PBS. Intranasal administration was performed on mildly sedated mice (12-16 weeks old), each mouse receiving […] of antigen per dose, in the indicated concentrations, every other day. Atherogenesis was induced by 5 weeks of a Western diet initiated on the day following the last intranasal administration, or assessed (in Apo E KO mice) after 8 weeks on a chow diet. Controls received equal amounts of BSA and/or PBS, as indicated, in an identical regimen. Plasma was obtained for assessment of cholesterol and triglyceride levels from all mice, and the mice were sacrificed for evaluation of atherosclerosis, as described hereinbelow, after 5 weeks Western diet, or (in Apo E KO mice) after 8 weeks on a chow diet.
Assessment of Atherosclerosis: Quantification of atherosclerotic fatty streak lesions was done by calculating the lesion size in the aortic sinus as previously described (16) and by calculating the lesion size in the aorta. Briefly, after perfusion with saline Tris EDTA, the heart and the aorta were removed from the animals and the peripheral fat cleaned carefully. […] Lesion areas per section were scored on a grid (17) by an observer counting unidentified, numbered specimens. […]

B1: Human β2 GPI: human beta2-glycoprotein I (SEQ ID NO: 10) purified from serum (protein)
chain: MISPVLILFSSFLCHVAIAGRTCPKPDDLPFSTVVPLKTFYEPGEEITYSCKPGYVSRGGMRKFICPLTGLWPINTLKCTPRVCPFAGILENGAVRYTTFEYPNTISFSCNTGFYLNGADSAKCTEEGKWSPELPVCAPIICPPPSIPTFATLRVYKPSAGNNSLYRDTAVFECLPQHAMFGNDTITCTTHGNWTKLPECREVKCPFPSRPDNGFVNYPAKPTLYYKDKATFGCHDGYSLDGPEEIECTKLGNWSAMPSCKASCKLPVKKATVVYQGERVKIQEKFKNGMLHGDKVSFFCKNKEKKCSYTEDAQCIDGTIEVPKCFKEHSSLAFWKTDASDVKPC
Aortic sinus lesion (μm^2) (LDL-RD mice; oral 50 μg): 26563 ± 2370 μm^2
Aortic sinus lesion (μm^2) (LDL-RD mice; oral 100 μg): 30250 ± 4464 μm^2
Aortic sinus lesion (μm^2) (LDL-RD mice; oral 500 μg): 27031 ± 3387 μm^2
reduction of atherosclerosis as compared with BSA-fed controls (LDL-RD mice; oral 50 μg/dose): 45%
reduction of atherosclerosis (aortic sinus lesion size) as compared with BSA- and PBS-fed controls (LDL-RD mice; oral 100 μg/dose, 5 doses, Western diet 5 weeks): 44%
reduction of atherosclerosis as compared with BSA-fed controls (LDL-RD mice; oral 500 μg/dose): 44%
expression of IFN-γ in aorta (RT-PCR) [1]: inhibition of expression
expression of IL-10 in aorta (RT-PCR) [1]: induction of expression
tissue levels of β-actin gene transcripts (RT-PCR) [1]: without any influence
Aortic sinus lesion (μm^2) (ApoE-KO mice; End, nasal 10 μg/mouse, mean ± S.E): 117449 ± 7524 μm^2
reduction of progression of atherosclerotic lesions compared to PBS controls (ApoE-KO mice; nasal 10 μg, 3 doses, then 8 weeks of chow diet): 19%
